Assay results: patent publication US7951917 (Genentech, dated 2011)

Target: T1, human thrombopoietin receptor, c-Mpl (human, UniProt P40238 26-491)
T1 construct: extracellular domain; Antigen of the library panning; also called MPL (human thrombopoietin receptor tyrosine kinase ECD)
T1 sequence (looked up): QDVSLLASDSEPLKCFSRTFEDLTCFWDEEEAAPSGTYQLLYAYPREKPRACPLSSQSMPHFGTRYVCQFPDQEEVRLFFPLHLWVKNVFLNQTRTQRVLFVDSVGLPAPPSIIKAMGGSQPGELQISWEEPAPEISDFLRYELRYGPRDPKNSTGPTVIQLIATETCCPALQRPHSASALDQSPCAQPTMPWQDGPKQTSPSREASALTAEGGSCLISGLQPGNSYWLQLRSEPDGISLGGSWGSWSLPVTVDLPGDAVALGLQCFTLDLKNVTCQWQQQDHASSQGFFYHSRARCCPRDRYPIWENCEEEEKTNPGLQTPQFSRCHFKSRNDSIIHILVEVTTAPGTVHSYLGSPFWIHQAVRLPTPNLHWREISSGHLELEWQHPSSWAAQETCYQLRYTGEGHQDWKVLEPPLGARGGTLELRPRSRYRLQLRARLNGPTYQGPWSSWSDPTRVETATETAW
Assay: scFv from panning of a human scFv phage library

B1: anti-Mpl scFv, 12B5 (scFv)
scFv: QVQLVQSGGGLVRPGGSLSLSCAVSGITLRTYGMHWVRQAPGKGLEWVAGISFDGRSEYYADSVQGRFTISRDSSKNTLYLQMNSLRAEDTAVYYCARGAHYGFDIWGQGTMVTVSSGGGGTGGGGSGGGGSDIQMTQSPSTLSASIGDRVTITCRASEGIYHWLAWYQQKPGKAPKLLIYKASSLASGAPSRFSGSGSGTDFTLTISSLQPDDFATYYCQQYSNYPLTFGGGTKLEIK
binding result: binds
